Measured values as given in patent publication US20220259322A1.

B1: anti-GRP78 scFv-Fc 1183 (Fc fusion, part only; not given: Linker, domain order, Fc, not shown: another chain or arm of the molecule; a dimerising Fc or GST; small tags and cut ends)
VH: QMQLVQSGAEVKKPGSSVKVSCKASGGTFSSYAISWVRQAPGQGLEWMGWISAYNGNTNYAQKLQGRVTMTTDTSTSTAYMELRSLRSDDTAVYYCARDPPLRYFDWFRGSDWFDPWGQGTLVTVS
VL: NFMLTQPHSVSESPGKTVTISCTRSSGSIASNYVQWYQQRPGSSPTTVIYEDNQRPSGVPDRFSGSIDSSSNSASLTISGLKTEDEADYYCQSYDSTNGVFGGGTKLTVL
B2: anti-GRP78 scFv-Fc 1171 (Fc fusion, part only; not given: Linker, domain order, Fc, not shown: another chain or arm of the molecule; a dimerising Fc or GST; small tags and cut ends)
VH: QVQLVQSGAEVKKPGSSVKVSCKSSGGTFSNPVISWVRQAPGQGLEWMGGIITMFGTTYYGNSVRGRFIVSRDNSKNMLFLQMNSLRAEDTAVYYCAKDPPMFDYWGQGTLVTVS
VL: DIQLTQSPSSLSASVGDRVTITCRASQSISSYLNWYQQKPGKAPKLLIYDASNLETGVPSRFSGSGSGTDFTFTISSLQPEDIATYYCQQYDNLLALTFGGGTKVDIK

Legend:
[1] = molecular target: recombinant GRP78 full length protein (UniProt P11021); assay: Biacore, recombinant full length GRP78, scFv1183-Fc from 500 nM in two-fold dilutions
Sequence of recombinant GRP78 full length protein (P11021 19-654 limits assumed): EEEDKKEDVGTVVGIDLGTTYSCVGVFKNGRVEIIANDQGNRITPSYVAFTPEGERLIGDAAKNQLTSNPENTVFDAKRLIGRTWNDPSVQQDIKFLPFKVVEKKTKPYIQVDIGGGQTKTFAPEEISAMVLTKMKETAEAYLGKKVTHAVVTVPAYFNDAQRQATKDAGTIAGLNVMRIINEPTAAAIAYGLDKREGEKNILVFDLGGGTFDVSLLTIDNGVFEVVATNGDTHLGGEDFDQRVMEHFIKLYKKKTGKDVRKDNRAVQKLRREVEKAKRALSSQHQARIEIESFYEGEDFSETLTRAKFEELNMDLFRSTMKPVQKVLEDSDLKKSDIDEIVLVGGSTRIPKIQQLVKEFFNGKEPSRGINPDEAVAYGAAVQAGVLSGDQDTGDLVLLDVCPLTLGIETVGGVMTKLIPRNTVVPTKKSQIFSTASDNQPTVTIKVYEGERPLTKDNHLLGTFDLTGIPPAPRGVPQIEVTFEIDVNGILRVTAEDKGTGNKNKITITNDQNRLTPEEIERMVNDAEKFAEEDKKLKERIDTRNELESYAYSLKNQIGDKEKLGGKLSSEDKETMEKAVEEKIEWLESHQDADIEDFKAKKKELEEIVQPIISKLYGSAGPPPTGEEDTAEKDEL

[2] = molecular target: 78-kDa glucose-regulated protein (GRP78) (UniProt P11021); assay: flow cytometry, irradiated A549 cells, % of positive cells, 4PL fit
Sequence of 78-kDa glucose-regulated protein (GRP78) (P11021 19-654 limits assumed): as above

[3] = molecular target: recombinant GRP78 full length protein (UniProt P11021); assay: Biacore, recombinant full length GRP78, scFv1171-Fc from 500 nM in two-fold dilutions
[4] = molecular target: 78-kDa glucose-regulated protein (GRP78) (UniProt P11021); assay: flow cytometry, irradiated A549 cells, gMFI minus secondary only, one site-specific binding fit

Binder	Kd [1] [nM]	koff [1] [s⁻¹]	kon [1] [M⁻¹ s⁻¹]	EC50 [2] [nM]	Kd [3] [nM]	koff [3] [s⁻¹]	kon [3] [M⁻¹ s⁻¹]	Kd [4] [nM]
B1	8.4	0.00793	944000					
B2				16.8	4.77	0.00324	679000	18.7
